{
  "source": "patent US20190202925A1",
  "about": "(OPI VI IP HOLDCO, published 2019)",
  "key": {"soluble human TNFR2 [1]": {"target": "T1, soluble human TNFR2 (human, UniProt P20333 23-257)", "T1 construct": "also called soluble TNFR2", "T1 sequence (looked up)": "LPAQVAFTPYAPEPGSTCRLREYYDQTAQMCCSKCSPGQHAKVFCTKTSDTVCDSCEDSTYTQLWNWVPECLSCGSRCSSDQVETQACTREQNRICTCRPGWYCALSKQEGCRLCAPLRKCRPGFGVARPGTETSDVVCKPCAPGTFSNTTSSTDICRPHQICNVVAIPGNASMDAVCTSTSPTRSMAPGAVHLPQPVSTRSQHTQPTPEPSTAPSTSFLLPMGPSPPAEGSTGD", "assay": "competition ELISA: plate-bound soluble human TNFR2, competitor biotinylated TNFα, streptavidin-HRP, A450", "protocol": "(§1) Soluble human TNFR2 (Sino Biological, 10417-H08H) or cynomolgus TNFR2 (Sino Biological, 90102-C08H) was coated on Nunc-Immuno™ plates at 0.1 μg/ml, 0.5 ug/ml, 1 μg/ml, and 5 μg/ml. […] Plates were developed using TMB and stopped with 3 M HCl."}, "soluble cynomolgus TNFR2 [2]": {"target": "T2, soluble cynomolgus TNFR2 (cynomolgus, UniProt A0A2K5VET2 132-366)", "T2 sequence": "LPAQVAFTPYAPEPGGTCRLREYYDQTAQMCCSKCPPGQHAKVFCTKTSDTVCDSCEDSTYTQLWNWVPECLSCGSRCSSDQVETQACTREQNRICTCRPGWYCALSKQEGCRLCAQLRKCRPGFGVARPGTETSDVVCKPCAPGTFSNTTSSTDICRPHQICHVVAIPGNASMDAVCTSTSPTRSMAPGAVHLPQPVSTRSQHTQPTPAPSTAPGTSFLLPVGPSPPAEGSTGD", "assay": "competition ELISA: plate-bound soluble cynomolgus TNFR2, competitor biotinylated TNFα; IC50 relative to unlabelled TNFα = 1.00", "protocol": "as §1\n(§2) IC₅₀ values are reported in nM."}, "soluble human TNFR2 [3]": {"target": "T1, soluble human TNFR2", "assay": "competition ELISA: plate-bound soluble human TNFR2, competitor biotinylated TNFα, streptavidin-HRP, A450", "protocol": "as §1", "remark": "listed apart in the source"}, "soluble human TNFR2 [4]": {"target": "T1, soluble human TNFR2", "assay": "competition ELISA, plate-bound soluble human TNFR2, biotinylated TNFα as competitor", "protocol": "as §1, §2"}, "soluble human TNFR2 [5]": {"target": "T1, soluble human TNFR2", "assay": "competition ELISA: plate-bound soluble human TNFR2, competitor biotinylated TNFα; IC50 relative to unlabelled TNFα = 1.00", "protocol": "as §1"}, "soluble cynomolgus TNFR2 [6]": {"target": "T2, soluble cynomolgus TNFR2", "assay": "competition ELISA: plate-bound soluble cynomolgus TNFR2, competitor biotinylated TNFα, streptavidin-HRP, A450", "protocol": "as §1"}, "soluble cynomolgus TNFR2 [7]": {"target": "T2, soluble cynomolgus TNFR2", "assay": "competition ELISA: plate-bound soluble cynomolgus TNFR2, competitor biotinylated TNFα; IC50 relative to unlabelled TNFα = 1.00", "protocol": "as §1", "remark": "listed apart in the source"}, "[8]": {"target": "T3, cynomolgus TNFR2 on cells (cynomolgus)", "T3 construct": "whole, on cells; also called cynomolgus TNFR2 on CD4+ and CD8+ T cells", "assay": "flow cytometry on cynomolgus PBMC, antibody at 10 ug/mL, anti-human Fc-PE secondary", "protocol": "Cynomolgus peripheral blood mononuclear cells (PBMCs) from two independent donors were isolated by diluting whole blood (SNBL USA) 1:1 in PBS (Lonza), layering over Ficoll-Paque Plus (GE Healthcare), and centrifuging for 35 minutes at 400×g. The PBMC fraction was removed, washed 3 times in 2% FBS PBS and counted. 0.3×10⁶ PBMC were resuspended in Fixable Viability Stain 575V (BD) diluted 1:1000 in PBS and incubated for 10 minutes. PBMC were then washed twice in PBS to remove residual viability stain, resuspended in Horizon Brilliant Stain Buffer (BD) with 10 uL per test of human Fc receptor binding inhibitor (eBioscience), and incubated on ice for 20 minutes to block Fc receptors. […] PBMC were incubated 20 minutes on ice and then washed three times with 2% FBS PBS. To visualize TNFR2 chimeric antibody binding, PBMC were resuspended in goat anti-human Fc-PE F(ab′)₂ secondary reagent (Jackson ImmunoResearch) diluted 1:200 in 2% FBS PBS and incubated on ice for 20 minutes. Cells were then washed three times in 2% FBS PBS and resuspended in 200 uL 2% FBS PBS for flow cytometry analysis using a BD FACS Celesta instrument and FACS Diva software. T cells were analyzed for chimeric TNFR2 binding by gating on viable cells defined as lymphocytes using forward and side scatter and as T cells by anti-CD3 staining. CD4⁺ and CD8⁺ subsets were identified using commercial specific antibody conjugates."}},
  "note": "Read-outs that look alike come from different tables or passages of the source.",
  "data": [
    {"binder": "chimeric SBT-002 (antibody, V domains shown, also called chSBT-002) VH: QVTLKESGPGILQPSQTLSLTCSFSGFSLSTSGMGVGWIRQPSGKGLEWLAHIWWDDDKFYNPSLKSQLTISKDTSRNQVFLKLTSVVTADTATYYCARLTGTRYFDYWGQGTTLTVSS VL: DVQMTQSPSSLSASLGGKVTITCKASQDINKFIAWYQHKPGKGPRLLIHYTSTLQPGIPSKFSGSGSGRDYSFSISNLEPEDIATYYCLQYGNLWTFGGGTKLEIT", "values": [
      {"measurement": "IC50", "setting": "soluble human TNFR2 [1]", "value": 7.53, "unit": "nM"},
      {"measurement": "Relative IC50", "setting": "soluble cynomolgus TNFR2 [2]", "value": 2.87, "unit": "nM"},
      {"measurement": "IC50", "setting": "soluble human TNFR2 [3]", "value": 16.5, "unit": "nM"},
      {"measurement": "Average Relative IC50", "setting": "soluble human TNFR2 [4]", "value": 2.91, "unit": "nM"},
      {"measurement": "Relative IC50", "setting": "soluble human TNFR2 [5]", "value": 3.03, "unit": "nM"},
      {"measurement": "IC50", "setting": "soluble cynomolgus TNFR2 [6]", "value": 27.6, "unit": "nM"},
      {"measurement": "Relative IC50", "setting": "soluble cynomolgus TNFR2 [7]", "value": 4.16, "unit": "nM"},
      {"measurement": "% CD4^+ ab^+ Donor 1", "setting": "[8]", "value": 9, "unit": "%"},
      {"measurement": "% CD4^+ ab^+ Donor 2", "setting": "[8]", "value": 14.1, "unit": "%"},
      {"measurement": "% CD8^+ ab^+ Donor 1", "setting": "[8]", "value": 9.5, "unit": "%"},
      {"measurement": "% CD8^+ ab^+ Donor 2", "setting": "[8]", "value": 29, "unit": "%"}
    ]},
    {"binder": "chimeric SBT-004 (antibody, V domains shown, VH fused to a human IgG1 Fc domain; also called chSBT-004) VH: EVQLQQSGPEVGRPGSSVKISCKASGYTFTDYIMHWVKQSPGQGLEWIGWVDPEYGSTDYAEKFKKKATLTADTSSNTAYIQLSSLTSEDTATYFCARDDGSYSPFDYWGQGVMVTVSS VL: DIQMTQSPPSLSASLGDKVTITCQASQNINKYIAWYQQKPGKAPRLLIRYTSTLESGTPSRFSGSGSGRDYSFSISNVESEDIASYYCLQYVNLLTFGAGTKLEIK", "values": [
      {"measurement": "IC50", "setting": "soluble human TNFR2 [1]", "value": 16.7, "unit": "nM"},
      {"measurement": "Relative IC50", "setting": "soluble cynomolgus TNFR2 [2]", "value": 3.22, "unit": "nM"},
      {"measurement": "IC50", "setting": "soluble human TNFR2 [3]", "value": 19.6, "unit": "nM"},
      {"measurement": "Average Relative IC50", "setting": "soluble human TNFR2 [4]", "value": 5.07, "unit": "nM"},
      {"measurement": "Relative IC50", "setting": "soluble human TNFR2 [5]", "value": 6.72, "unit": "nM"},
      {"measurement": "IC50", "setting": "soluble cynomolgus TNFR2 [6]", "value": 31, "unit": "nM"},
      {"measurement": "Relative IC50", "setting": "soluble cynomolgus TNFR2 [7]", "value": 4.45, "unit": "nM"},
      {"measurement": "% CD4^+ ab^+ Donor 1", "setting": "[8]", "value": 10.2, "unit": "%"},
      {"measurement": "% CD4^+ ab^+ Donor 2", "setting": "[8]", "value": 7.6, "unit": "%"},
      {"measurement": "% CD8^+ ab^+ Donor 1", "setting": "[8]", "value": 11.2, "unit": "%"},
      {"measurement": "% CD8^+ ab^+ Donor 2", "setting": "[8]", "value": 18.4, "unit": "%"}
    ]}
  ]
}
